In the series the target is Androgen receptor (AR) (UniProt P10275 P10275:1-920). In words: EMSA.
Androgen receptor (AR), sequence (P10275 whole entry, one chain of several): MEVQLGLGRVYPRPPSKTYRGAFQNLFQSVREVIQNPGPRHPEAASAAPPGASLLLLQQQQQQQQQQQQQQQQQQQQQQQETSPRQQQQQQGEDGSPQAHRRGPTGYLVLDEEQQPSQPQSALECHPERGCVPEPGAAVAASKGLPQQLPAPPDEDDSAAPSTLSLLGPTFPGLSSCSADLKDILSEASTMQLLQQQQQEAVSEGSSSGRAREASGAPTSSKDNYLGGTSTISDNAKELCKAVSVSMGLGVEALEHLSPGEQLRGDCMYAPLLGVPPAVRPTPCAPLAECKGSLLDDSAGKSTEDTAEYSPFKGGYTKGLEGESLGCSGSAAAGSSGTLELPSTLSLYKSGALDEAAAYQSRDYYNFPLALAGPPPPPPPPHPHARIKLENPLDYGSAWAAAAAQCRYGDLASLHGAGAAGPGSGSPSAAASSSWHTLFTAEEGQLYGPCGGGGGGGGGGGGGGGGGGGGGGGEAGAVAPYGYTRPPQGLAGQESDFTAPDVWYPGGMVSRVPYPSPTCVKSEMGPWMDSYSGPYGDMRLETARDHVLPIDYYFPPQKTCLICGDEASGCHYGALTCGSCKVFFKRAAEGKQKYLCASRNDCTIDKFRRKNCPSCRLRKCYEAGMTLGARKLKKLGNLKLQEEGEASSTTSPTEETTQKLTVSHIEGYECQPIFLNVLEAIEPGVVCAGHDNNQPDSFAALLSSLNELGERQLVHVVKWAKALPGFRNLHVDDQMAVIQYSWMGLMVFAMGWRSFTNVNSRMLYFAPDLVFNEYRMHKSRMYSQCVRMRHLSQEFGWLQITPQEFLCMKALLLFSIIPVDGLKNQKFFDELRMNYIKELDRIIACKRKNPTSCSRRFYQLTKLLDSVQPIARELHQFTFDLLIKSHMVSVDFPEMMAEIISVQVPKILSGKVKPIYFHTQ

On to UCUCUCUCUCUCUCUCUCUC (ssRNA) [(UC)10], for which the binding result is “no binding”.

Regarding CCCUCCCUCCCUCCCUCCCU (ssRNA) [(CCCU)5], the binding result is reported as “no binding”.

UUCUUUCUUUCUUUCUUUCU (ssRNA) [(UUCU)5]: the binding result is recorded as “no binding”.

The record behind these values is patent publication US20190071668, “COMPOSITIONS AND METHODS FOR IDENTIFICATION, ASSESSMENT, PREVENTION, AND TREATMENT OF CANCER USING SLNCR ISOFORMS” (Dana-Farber Cancer Institute, Inc., published 2019).
